Measurements from the supplement of paper PMC9732359.
± gives the uncertainty stated by the source.

assay: protein stability index of a GFP-peptide fusion (yeast GPS) (PSI 1-4); higher = more stable; sorted into four equal gates, so the index is relative within each strain; conditions: san1∆
Outline: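 Tiled yeast protein peptides of 17 residues were each joined downstream of GFP, on plasmids that also express Cherry. The pooled library was maintained in yeast, and mid-log cultures in leucine-free medium were sorted into four equal gates on the GFP/Cherry ratio. Plasmids from every gate were amplified by PCR and sequenced on Illumina, with barcodes linking reads to strains. The protein stability index of a peptide is its gate-number-weighted read frequency summed over the gates.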

Sequence | protein stability index
ESLILKWDNQSASRAKN [RGR1] | 2.9 ± 0.05
ESLREIPYGPDFDNIEF [SEC65] | 2.92 ± 0.087

same assay, conditions: ubr1∆

Sequence | protein stability index
EFEYDDEPDEQGNPKKR [CYT1] | 3.15 ± 0.07
EFFSTNWLSIFNDFSNI [REC8] | 2.83 ± 0.08
EFIFGTYNMIDAAAEKR [ARP7] | 3.12 ± 0.04
EFISIYSNSHQMAVHIA [RET1] | 3.11 ± 0.087
EFLYSKAGREELERVNV [QCR8] | 3.27 ± 0.17
EFTLFMDIAERIAVLHQ [YGL172W/NUP49] | 2.9 ± 0.048
EFVSYYYAHSIPSSKID [SNU114] | 1.62 ± 0.039
EGIEKMGVRTFSQKEMA [FAS2] | 2.89 ± 0.061
EGKRIAFGFVDRTLPHF [RPO21] | 3.13 ± 0.035
EGLELLGWIHTQTEELK [PRP8] | 3.29 ± 0.099
EGRLYQVEYALESISHA [PRE9] | 1.85 ± 0.048
EGTSISVHLIECYKQLF [YCS4] | 3.3 ± 0.063
EHFSHFGHIMEDFQVLR [YDL088C/ASM4] | 2.44 ± 0.045
EHIIRDVHNGYILRYLH [COB] | 2 ± 0.11
EHRRYDDQLKQRRQNIR [RPT4] | 2.69 ± 0.12
EHSQVEQTCVKLLDSGC [SRP72] | 3.34 ± 0.063
EIAGLSPYERRLIDLIR [RPL36A] | 2.29 ± 0.071
EIEIEGVMSLLQKSSKS [YAR002W/NUP60] | 3.25 ± 0.072
EIFQLFTNPSVDIQIIN [SWI1] | 2.54 ± 0.064
EILTNQQRGITYLNEVL [YGR119C/NUP57] | 2.71 ± 0.066
EIMYTGVSISVSFNSKQ [SMC3] | 2.29 ± 0.1
EISTSKKNNLEFGTYGK [RPN14] | 2.04 ± 0.059
EITAKEVYDFTHAVGNN [FAS1] | 3.08 ± 0.039
EITQQEKGLNELSIRDV [SMC4] | 1.85 ± 0.087
EITVVKPDSDIVALSSE [PRE6] | 3.3 ± 0.049
EKIAAGYMQKPVYATIG [PRP28] | 2.67 ± 0.094

Sequence | protein stability index
EKIKDIHNTKLPAYSGE [POP1] | 2.79 ± 0.08
EKIKKINYHQYISKAQN [SSN2] | 2.15 ± 0.062
EKIMILLVPLALLTKRL [CSN12] | 1.3 ± 0.03
EKKILNQFLKIKKKRKE [SMC1] | 3.33 ± 0.15
EKKNDENSTSNSKPEKS [YLR335W/NUP2] | 3.3 ± 0.056
EKLITSKLLVPQKNVKI [PRE10] | 2.21 ± 0.042
EKLKVNMEKEKDRIIDE [YIL149C/MLP2] | 2.75 ± 0.14
EKPQFKDGETTDANGKT [RPO26] | 3.28 ± 0.05
EKSDALVGVYRQQQENS [SMC1] | 2.85 ± 0.096
ELADLPKLKRIGLVKCT [GRR1] | 2.88 ± 0.087
ELAESTTTKIIDSTDHI [LRP1] | 2.63 ± 0.12
ELAGGNASLTIEDEDEP [SMC1] | 3.16 ± 0.074
ELAQYMKTNVHTQANEP [RGR1] | 2.75 ± 0.068
ELFKGYLADDIDADSLE [RPL5] | 3.17 ± 0.087
ELGAINLHALSMSLQSK [SWI1] | 2.46 ± 0.076
ELGISLEHPYGKEVEVL [SNU114] | 2.14 ± 0.056
ELGNMTMLITGQRPDRA [SIN4] | 2.31 ± 0.073
ELLDQVTLGREGQIIQR [CDC53] | 3.21 ± 0.19
ELLEYSDDIAENDNLDN [YCG1] | 3.25 ± 0.054
ELLKLLNDEYNYPQLTE [YCS4] | 3.25 ± 0.06
ELLPHYPFVTNDDIEWM [YJR042W/NUP85] | 2.96 ± 0.073
ELMRIISRNGDTSYKID [SMC1] | 2.95 ± 0.058
ELNEEKKRLMDIDDELN [SMC2] | 3.51 ± 0.069
ELNVKHVKQCQETCDKL [SMC2] | 3.31 ± 0.051
ELPLLSPERFATLGIDP [RPT1] | 2.52 ± 0.19
ELPLVITMPATNGKPDM [ARP7] | 2.99 ± 0.059

Sequence | protein stability index
ELRRFESSINTHPHAAD [SKI6] | 2.87 ± 0.055
ELSDSDRQIINEKMQLL [SIR4] | 2.32 ± 0.047
ELSIRFPQYKLTTFANQ [ARP7] | 1.59 ± 0.051
ELTDKLSALNSEISSLK [SMC1] | 2.89 ± 0.076
ELTKTKSSLYSAQDLLD [YIL149C/MLP2] | 2.83 ± 0.029
ELTQVPSARQKYMVKGG [UBP6] | 2.96 ± 0.11
EMAEKIDFTLLNRLLRL [PRP8] | 2.37 ± 0.049
EMNLHVPQTEEARAEAI [RPO31] | 3.12 ± 0.045
EMVENSSENNQIILAYI [SRP68] | 3.35 ± 0.062
ENEISSLLAMHKHNIMK [CDC53] | 3.07 ± 0.039
ENFSNGISLVMEIVANA [MED1] | 2.51 ± 0.034
ENGDEDEDEDEDEDDDD [QCR6] | 2.46 ± 0.043
ENLMVQRTCLMTVTFLI [YCS4] | 2.04 ± 0.038
ENSIGYNNRKCWPKDSR [PRP8] | 2.87 ± 0.29
EPEFHALSQSSLLKTKL [RRI1] | 2.24 ± 0.037
EPFNAGIKYHATPPLKR [SMC1] | 2.97 ± 0.045
EPILGQITLTFISELCS [YML103C/NUP188] | 3.02 ± 0.044
EPIYGVQYKLLSISVPS [SNU114] | 3.09 ± 0.11
EPKKDKESIVLPTVGFD [YOR098C/NUP1] | 2.92 ± 0.07
EPKKPSFTFASSKTSQP [YOR098C/NUP1] | 3.04 ± 0.031
EPKQKANAVQNNNGNSA [SRP21] | 3.24 ± 0.12
EPNLAAQQDSTNVRLYS [ECM29] | 2.37 ± 0.074
EPPLSYEQHIENIEPLD [PRP8] | 3.03 ± 0.27
EPTYRLVRYGLAEKVEK [RPS24A] | 3.12 ± 0.19
EQDALFITRLAQGLLHL [RPN1] | 2.29 ± 0.14
EQLSKQRDLYKRKEELV [SMC2] | 2.73 ± 0.084

Sequence | protein stability index
EQTEGEPKKKRGFLGLF [SRP68] | 2.76 ± 0.066
ERAKNVNGLLQVLMDIN [GAL11] | 2.83 ± 0.04
ERDCVIAYGASQLLLER [RET1] | 1.11 ± 0.051
ERDFYHSLREYINGKAT [RPO31] | 1.75 ± 0.023
ERDSYKLLASTEENKAN [YIL149C/MLP2] | 3.06 ± 0.034
ERFTKSKTLSLIQSYSL [FAS1] | 2.06 ± 0.039
ERGGKFHESGSQYSTMV [RGR1] | 3.3 ± 0.14
ERKKQSDVLRFLQRVRV [RPL15B] | 2.12 ± 0.043
ERKLKFSNRFLPVASPF [FAS1] | 2.85 ± 0.099
ERKRKSVRGAIVGPDLA [RPS6A] | 3.01 ± 0.13
ERLDKDKDRDTRRKRRQ [SNF5] | 3.46 ± 0.13
ERLVEFSNVNELQEKNV [YIL149C/MLP2] | 3.1 ± 0.2
ERQMNFLTNELIRLQME [SWI3] | 3.09 ± 0.069
ERSYPSEFANQNQGGAQ [ROX3] | 3.17 ± 0.061
ERVPKTQLDKLRPRKDS [SMB1] | 3.17 ± 0.045
ERVTALKNCKISNINIP [SMC1] | 3.41 ± 0.11
ERYFDCCTKFFTMMTSE [PCI8] | 2.29 ± 0.045
ESDGRMFIEEPTRMVRV [SRP54] | 2.73 ± 0.054
ESEEAETKDIRKQIQLL [SRB4] | 2.71 ± 0.075
ESFTEELSNELSRLSTA [MED1] | 3.21 ± 0.034
ESITKAMEFIFGNSLIC [SMC2] | 1.89 ± 0.046
ESITYQKIMILQRTILN [RGR1] | 2.06 ± 0.065
ESLILKWDNQSASRAKN [RGR1] | 3.09 ± 0.052
ESLREIPYGPDFDNIEF [SEC65] | 3.04 ± 0.057
